# Test results taken from IntAct's records for PubMed 24855949.
# B1: Cyclin-dependent kinase inhibitor 2A (Homo sapiens), P42771 (parent)
# chain: MEPAAGSSMEPSADWLATAAARGRVEEVRALLEAGALPNAPNSYGRRPIQVMMMGSARVAELLLLHGAEPNCADPATLTRPVHDAAREGFLDTLVVLHRAGARLDVRDAWGRLPVDLAEELGHRDVARYLRAAAGGTRGSNHARIDAAEGPSDIPD
# B2: NF-kappa-B inhibitor alpha (Gallus gallus (Chicken)), Q91974 (parent)
# chain: MLSAHRPAEPPAVEGCEPPRKERQGGLLPPDDRHDSGLDSMKEEEYRQLVRELEDIRLQPREPPARPHAWAQQLTEDGDTFLHLAIIHEEKALSLEVIRQAAGDAAFLNFQNNLSQTPLHLAVITDQAEIAEHLLKAGCDLDVRDFRGNTPLHIACQQGSLRSVSVLTQHCQPHHLLAVLQATNYNGHTCLHLASIQGYLAVVEYLLSLGADVNAQEPCNGRTALHLAVDLQNSDLVSLLVKHGPDVNKVTYQGYSPYQLTWGRDNASIQEQLKLLTTADLQILPESEDEESSESEPEFTEDELMYDDCCIGGRQLTF
# B3: Ankyrin repeat domain-containing protein 49 (Homo sapiens), Q8WVL7 (parent)
# chain: MEKEKGNDDGIPDQENSLDFSEHFNQLELLETHGHLIPTGTQSLWVGNSDEDEEQDDKNEEWYRLQEKKMEKDPSRLLLWAAEKNRLTTVRRLLSEKATHVNTRDEDEYTPLHRAAYSGHLDIVQELIAQGADVHAVTVDGWTPLHSACKWNNTRVASFLLQHDADINAQTKGLLTPLHLAAGNRDSKDTLELLLMNRYVKPGLKNNLEETAFDIARRTSIYHYLFEIVEGCTNSSPQS
# Variants of: B1
# Settings: with ran_human RAN
row,effect of a mutation on the interaction,Variant
1,disrupting interaction strength,R87P
2,disrupting interaction strength,M53I

# Variants of: B1
# Settings: with cdk4_human CDK4, P11802
# Chain of cdk4_human CDK4, P11802 (P11802 whole entry): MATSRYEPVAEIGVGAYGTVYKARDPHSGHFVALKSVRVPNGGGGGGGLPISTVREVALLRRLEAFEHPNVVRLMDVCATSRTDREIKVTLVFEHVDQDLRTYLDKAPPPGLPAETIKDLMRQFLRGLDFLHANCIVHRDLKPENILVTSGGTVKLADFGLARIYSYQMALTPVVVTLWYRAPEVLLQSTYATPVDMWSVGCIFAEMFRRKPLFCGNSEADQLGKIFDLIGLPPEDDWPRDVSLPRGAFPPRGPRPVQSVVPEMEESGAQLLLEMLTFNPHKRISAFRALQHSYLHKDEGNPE
row,effect of a mutation on the interaction,Variant
1,increasing interaction strength,R87P
2,increasing interaction strength,M53I

# Variants of: B1
# Settings: with ccnd1_human CCND1, P24385
# Chain of ccnd1_human CCND1, P24385 (P24385 whole entry): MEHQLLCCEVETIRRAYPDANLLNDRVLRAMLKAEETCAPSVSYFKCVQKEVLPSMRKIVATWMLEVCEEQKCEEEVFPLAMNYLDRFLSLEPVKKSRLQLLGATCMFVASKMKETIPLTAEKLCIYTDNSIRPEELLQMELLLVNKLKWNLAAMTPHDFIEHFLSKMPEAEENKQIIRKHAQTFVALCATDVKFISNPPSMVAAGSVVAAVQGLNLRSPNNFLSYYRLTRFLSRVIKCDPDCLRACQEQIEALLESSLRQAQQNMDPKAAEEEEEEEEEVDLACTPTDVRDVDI
row,effect of a mutation on the interaction,Variant
1,disrupting interaction strength,R87P
2,increasing interaction strength,M53I

# Variants of: B1
# Settings: with cdk4_human CDK4, P11802
# Remark: another data set of the same source
row,effect of a mutation on the interaction,Variant
1,decreasing interaction strength,R87P

# Variants of: B1
# Settings: with cdk6_human CDK6, Q00534
# Chain of cdk6_human CDK6, Q00534 (Q00534 whole entry): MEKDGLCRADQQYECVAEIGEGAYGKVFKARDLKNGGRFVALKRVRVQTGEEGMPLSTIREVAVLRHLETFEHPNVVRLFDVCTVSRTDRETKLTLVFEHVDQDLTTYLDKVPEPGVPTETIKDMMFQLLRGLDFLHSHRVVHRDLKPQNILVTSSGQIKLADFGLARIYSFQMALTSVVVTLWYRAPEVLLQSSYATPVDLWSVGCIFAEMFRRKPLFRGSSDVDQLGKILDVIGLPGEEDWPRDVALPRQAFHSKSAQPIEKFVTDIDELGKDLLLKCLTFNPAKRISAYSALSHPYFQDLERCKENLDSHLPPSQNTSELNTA
row,effect of a mutation on the interaction,Variant
1,decreasing interaction strength,R87P

# Variants of: B1
# Settings: with cdk6_human CDK6, Q00534
# Remark: another data set of the same source
row,effect of a mutation on the interaction,Variant
1,increasing interaction strength,R87P
2,increasing interaction strength,M53I

# Variants of: B1
# Settings: with ran_human RAN
# Remark: another data set of the same source
row,effect of a mutation on the interaction,Variant
1,increasing interaction strength,R87P
2,increasing interaction strength,M53I

# Variants of: B2
# Settings: with ran_human RAN
row,effect of a mutation on the interaction,Variant
1,decreasing interaction strength,MLSAHRPAEPPAVEGCEPPRKERQGGLLPPDDRHDSGLDSMKEEEYRQLVRELEDIRLQPREPPARPHAWAQQLTEDGDTFLHLAIIHEEKALSLEVIRQAAGDAAFLNFQNNLSQTPLHLAVQTDQAEIAEHLLKAGCDLDVRDFRGNTPLHIACQQGSLRSVSVLTQHCQPHHLLAVLQATNYNGHTCLHLASIQGYLAVVEYLLSLGADVNAQEPCNGRTALHLAVDLQNSDLVSLLVKHGPDVNKVTYQGYSPYQLTWGRDNASIQEQLKLLTTADLQILPESEDEESSESEPEFTEDELMYDDCCIGGRQLTF [I124Q]
2,decreasing interaction strength,MLSAHRPAEPPAVEGCEPPRKERQGGLLPPDDRHDSGLDSMKEEEYRQLVRELEDIRLQPREPPARPHAWAQQLTEDGDTFLHLAIIHEEKALSLEVIRQAAGDAAFLNFQNNLSQTPLHLAVKTDQAEIAEHLLKAGCDLDVRDFRGNTPLHIACQQGSLRSVSVLTQHCQPHHLLAVLQATNYNGHTCLHLASIQGYLAVVEYLLSLGADVNAQEPCNGRTALHLAVDLQNSDLVSLLVKHGPDVNKVTYQGYSPYQLTWGRDNASIQEQLKLLTTADLQILPESEDEESSESEPEFTEDELMYDDCCIGGRQLTF [I124K]
3,decreasing interaction strength,MLSAHRPAEPPAVEGCEPPRKERQGGLLPPDDRHDSGLDSMKEEEYRQLVRELEDIRLQPREPPARPHAWAQQLTEDGDTFLHLAIIHEEKALSLEVIRQAAGDAAFLNFQNNLSQTPLHLAVETDQAEIAEHLLKAGCDLDVRDFRGNTPLHIACQQGSLRSVSVLTQHCQPHHLLAVLQATNYNGHTCLHLASIQGYLAVVEYLLSLGADVNAQEPCNGRTALHLAVDLQNSDLVSLLVKHGPDVNKVTYQGYSPYQLTWGRDNASIQEQLKLLTTADLQILPESEDEESSESEPEFTEDELMYDDCCIGGRQLTF [I124E]
4,decreasing interaction strength,MLSAHRPAEPPAVEGCEPPRKERQGGLLPPDDRHDSGLDSMKEEEYRQLVRELEDIRLQPREPPARPHAWAQQLTEDGDTFLHLAIIHEEKALSLEVIRQAAGDAAFLNFQNNLSQTPLHLAVATDQAEIAEHLLKAGCDLDVRDFRGNTPLHIACQQGSLRSVSVLTQHCQPHHLLAVLQATNYNGHTCLHLASIQGYLAVVEYLLSLGADVNAQEPCNGRTALHLAVDLQNSDLVSLLVKHGPDVNKVTYQGYSPYQLTWGRDNASIQEQLKLLTTADLQILPESEDEESSESEPEFTEDELMYDDCCIGGRQLTF [I124A]
5,decreasing interaction strength,MLSAHRPAEPPAVEGCEPPRKERQGGLLPPDDRHDSGLDSMKEEEYRQLVRELEDIRLQPREPPARPHAWAQQLTEDGDTFLHLAIIHEEKALSLEVIRQAAGDAAFLNFQNNLSQTPLHLAVRTDQAEIAEHLLKAGCDLDVRDFRGNTPLHIACQQGSLRSVSVLTQHCQPHHLLAVLQATNYNGHTCLHLASIQGYLAVVEYLLSLGADVNAQEPCNGRTALHLAVDLQNSDLVSLLVKHGPDVNKVTYQGYSPYQLTWGRDNASIQEQLKLLTTADLQILPESEDEESSESEPEFTEDELMYDDCCIGGRQLTF [I124R]

# Variants of: B3
# Settings: with ran_human RAN
row,Variant,effect of a mutation on the interaction
1,MEKEKGNDDGIPDQENSLDFSEHFNQLELLETHGHLIPTGTQSLWVGNSDEDEEQDDKNEEWYRLQEKKMEKDPSRLLLWAAEKNRLTTVRRLLSEKATHVNTRDECEYTPLHRAAYSGHLDIVQELIAQGADVHAVTVDGWTPLHSACCWNNTRVASFLLQHDADINAQTKGLLTPLHLAACNRDSKDTLELLLMNRYVKPGLKNNLEETAFDIARRTSIYHYLFEIVEGCTNSSPQS [D107C;K150C;G183C],increasing interaction strength
2,MEKEKGNDDGIPDQENSLDFSEHFNQLELLETHGHLIPTGTQSLWVGNSDEDEEQDDKNEEWYRLQEKKMEKDPSRLLLWAAEKNRLTTVRRLLSEKATHVNTRDECEYTPLHRAAYSGHLDIVQELIAQGADVHAVTVDGWTPLHSACCWNNTRVASFLLQHDADINAQTKGLLTPLHLAAGNRDSKDTLELLLMNRYVKPGLKNNLEETAFDIARRTSIYHYLFEIVEGCTNSSPQS [D107C;K150C],increasing interaction strength
3,MEKEKGNDDGIPDQENSLDFSEHFNQLELLETHGHLIPTGTQSLWVGNSDEDEEQDDKNEEWYRLQEKKMEKDPSRLLLWAAEKNRLTTVRRLLSEKATHVNTRDEIEYTPLHRAAYSGHLDIVQELIAQGADVHAVTVDGWTPLHSACIWNNTRVASFLLQHDADINAQTKGLLTPLHLAAGNRDSKDTLELLLMNRYVKPGLKNNLEETAFDIARRTSIYHYLFEIVEGCTNSSPQS [D107I;K150I],increasing interaction strength

# More lines, now with the values ahead:
row,effect of a mutation on the interaction,Variant
1,increasing interaction strength,MEKEKGNDDGIPDQENSLDFSEHFNQLELLETHGHLIPTGTQSLWVGNSDEDEEQDDKNEEWYRLQEKKMEKDPSRLLLWAAEKNRLTTVRRLLSEKATHVNTRDEDEYTPLHRAAYSGHLDIVQELIAQGADVHAVTVDGWTPLHSACIWNNTRVASFLLQHDADINAQTKGLLTPLHLAAGNRDSKDTLELLLMNRYVKPGLKNNLEETAFDIARRTSIYHYLFEIVEGCTNSSPQS [K150I]
2,increasing interaction strength,MEKEKGNDDGIPDQENSLDFSEHFNQLELLETHGHLIPTGTQSLWVGNSDEDEEQDDKNEEWYRLQEKKMEKDPSRLLLWAAEKNRLTTVRRLLSEKATHVNTRDEDEYTPLHRAAYSGHLDIVQELIAQGADVHAVTVDGWTPLHSACKWNNTRVASFLLQHDADINAQTKGLLTPLHLAACNRDSKDTLELLLMNRYVKPGLKNNLEETAFDIARRTSIYHYLFEIVEGCTNSSPQS [G183C]
